In patent US20100330095A1 (U3 PHARMA, published 2010):
Changes are numbered by the printed parent chain. One block for each binder: values may come before it.

Legend:
[1] = target: T1, human receptor tyrosine kinase AXL transcript variant 1 (human, UniProt P30530 26-894); test: FACS Scatchard (apparent KD) on human AXL overexpressing NIH3T3 cells
T1 construct: Overexpressed on RatI-AXL cl.2 and NIH3T3-AXL cl.7 fibroblasts (pLXSN-hAXL); endogenous on human cancer cell lines and HUVEC in the functional assays; also called hAXL; human AXL
T1 sequence: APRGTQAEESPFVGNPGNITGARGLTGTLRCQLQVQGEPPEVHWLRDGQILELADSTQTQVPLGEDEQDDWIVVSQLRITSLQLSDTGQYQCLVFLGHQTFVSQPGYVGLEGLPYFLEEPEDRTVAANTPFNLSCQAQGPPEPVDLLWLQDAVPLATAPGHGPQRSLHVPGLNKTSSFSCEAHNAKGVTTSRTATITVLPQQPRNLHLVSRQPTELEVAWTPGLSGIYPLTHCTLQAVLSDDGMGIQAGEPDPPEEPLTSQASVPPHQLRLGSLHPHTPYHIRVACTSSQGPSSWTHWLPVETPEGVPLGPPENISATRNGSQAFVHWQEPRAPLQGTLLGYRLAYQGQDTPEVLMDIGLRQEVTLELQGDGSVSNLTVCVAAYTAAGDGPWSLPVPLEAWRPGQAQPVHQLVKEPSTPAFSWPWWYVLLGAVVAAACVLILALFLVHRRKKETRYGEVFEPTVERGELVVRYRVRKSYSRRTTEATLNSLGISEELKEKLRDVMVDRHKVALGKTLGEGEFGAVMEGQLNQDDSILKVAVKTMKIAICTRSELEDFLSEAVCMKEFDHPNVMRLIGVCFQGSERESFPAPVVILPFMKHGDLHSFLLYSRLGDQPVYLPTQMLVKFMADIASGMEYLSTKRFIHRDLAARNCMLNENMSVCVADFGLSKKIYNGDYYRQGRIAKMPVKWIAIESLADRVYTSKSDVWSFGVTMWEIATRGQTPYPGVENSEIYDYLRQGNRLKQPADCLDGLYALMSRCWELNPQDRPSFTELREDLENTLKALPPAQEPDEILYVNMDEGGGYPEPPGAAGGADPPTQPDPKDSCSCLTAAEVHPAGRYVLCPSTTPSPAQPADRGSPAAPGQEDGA
Method: Human AXL overexpression NIH3T3 cells were harvested by incubation with 10 mM EDTA in PBS and resuspended at 6 million cells per ml in FACS buffer (PBS pH 7.4, 3% FCS, 0.1% NaN₃). […] Antibody binding was allowed to proceed for 2 hours on ice. Then, cells were washed twice with 250 μl FACS buffer per well, and resuspended in 200 μl of secondary antibody (anti-rat-PE; Jackson) diluted 1:50 in FACS buffer. After 45 minutes of incubation, cells were again washed twice in FACS buffer and resuspended in […] PBS for FACS analysis. Analysis was carried out on a Beckman-Coulter FACS FC500. To determine the apparent affinity constant KDapp, mean fluorescence values were plotted against the ratio of mean fluorescence and the corresponding antibody concentration ([M]).

[2] = target: T1, human receptor tyrosine kinase AXL …; test: cell-based or functional assay
human Sky = target: T2, human Sky (human, UniProt Q06418 41-890); test: flow cytometry, transiently transfected HEK293T cells
T2 construct: whole, on cells; Transiently expressed on HEK293T cells (pcDNA3-hSky); also called hSky
T2 sequence (looked up): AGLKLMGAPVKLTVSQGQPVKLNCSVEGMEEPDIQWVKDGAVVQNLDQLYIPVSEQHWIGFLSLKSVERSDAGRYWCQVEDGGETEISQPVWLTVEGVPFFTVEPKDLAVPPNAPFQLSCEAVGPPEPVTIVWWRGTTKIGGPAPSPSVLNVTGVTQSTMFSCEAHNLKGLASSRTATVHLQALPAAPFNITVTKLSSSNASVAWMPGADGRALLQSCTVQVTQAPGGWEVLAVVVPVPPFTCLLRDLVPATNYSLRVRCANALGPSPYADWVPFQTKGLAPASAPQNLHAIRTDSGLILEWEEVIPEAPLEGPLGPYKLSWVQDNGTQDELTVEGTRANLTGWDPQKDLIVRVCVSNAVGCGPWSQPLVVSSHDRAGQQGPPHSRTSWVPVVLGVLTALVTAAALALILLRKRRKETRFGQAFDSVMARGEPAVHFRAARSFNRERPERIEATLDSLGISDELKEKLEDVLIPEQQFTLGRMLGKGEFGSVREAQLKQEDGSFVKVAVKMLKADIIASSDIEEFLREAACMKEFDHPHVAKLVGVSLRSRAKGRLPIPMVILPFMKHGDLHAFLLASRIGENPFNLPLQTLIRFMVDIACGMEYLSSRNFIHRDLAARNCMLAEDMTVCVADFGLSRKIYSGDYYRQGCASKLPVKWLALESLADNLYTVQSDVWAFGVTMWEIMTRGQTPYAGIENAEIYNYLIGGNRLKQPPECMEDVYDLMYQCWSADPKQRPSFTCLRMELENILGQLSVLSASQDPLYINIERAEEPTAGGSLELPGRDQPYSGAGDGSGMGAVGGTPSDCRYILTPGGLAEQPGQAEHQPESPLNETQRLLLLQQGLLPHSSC
Method: FIG. 3. Flow cytometry analysis of cross-reactivity of rat-anti AXL antibodies with mouse and cynomolgus monkey AXL as well as human Mer and Sky. HEK293T fibroblasts were transiently transfected with pcDNA3, pcDNA3-hAXL, pcDNA3 mAXL, pcDNA3-cyAXL, pcDNA3-hMer, or pcDNA3-hSky. […] See text for details.
For FACS analysis, 2×10⁵ cells were harvested with 10 mM EDTA in PBS, washed once with FACS buffer (PBS, 3% FCS, 0.4% azide) and seeded on a 96 well round bottom plate. […] After incubation on ice for 1 h, cells were washed twice with chilled FACS buffer and resuspended with PE-conjugated donkey anti-rat (Jackson) secondary antibody diluted 1:50 in FACS buffer (100 μl/well) or PE-conjugated donkey anti-mouse secondary antibody for control. Protected from light, cells were incubated on ice for 30 min, washed twice with FACS buffer and analyzed using an Epics XL-MCL flow cytometer (Beckman Coulter).

Kd [1]: 0.81 nM
IC50 of VEGF-A-stimulated HUVEC spheroid sprouting [2]: 700 nM
binding result (human Sky): no binding (tested: 10 µg/ml)
B1: III 11D5 (antibody, rat IgG2a, V domains shown)
VH: EVQLQESGPGLVKPSQSLSLTCSVTGYSITSNYWGWIRKFPGNKMEWIGHITNSGNTTYNPSLKSRISISRDTSRNQFFLQLNSVTTEDTATYYCAKGAFDYWGQGVMVTVSS
VL: DIQMTQSPSSMSTSLGDRVTITCRASQDIGNYLSWFQQKVGKSPRRMIYGAIKLAVGVPSRFSGSRSGSDYSLTISSLESEDMAIYYCLQYIQFPLTFGSGTKLELK
notes: rat hybridoma antibody, antagonistic

Kd [1]: 0.38 nM
IC50 of VEGF-A-stimulated HUVEC spheroid sprouting [2]: 98 nM
binding result (human Sky): no binding (tested: 10 µg/ml)
B2: I 11B7 (antibody, V domains shown)
VH: EVQLQESGPGLVKPSQSLSLTCSVTGYSITSNYWGWIRKFPGDKMEWMGYITYSGSTSYNPSLKSRISITRDTSKNQFFLQLNSVTSEDTATYYCAITTFYYWGQGVMVTVSS
VL: DIQMTQAPSSLPASLGDRVTITCRASQDIGNYLRWFQQKPGKSPRLMISGATNLAAGVPSRFSGSRSGSDYSLTISSLESEDMADYYCLQSKESPWTFGGGTKLELK
notes: as for B1

binding result (human Sky): no binding (tested: 10 µg/ml)
B3: I 10D12 (antibody, V domains shown)
VH: EVQLQESGPGLVKPSQSLSLTCSVTGYSITSNYWGWIRKFPGNKMEWMGYITNSGGTAYNPSLKSRISITRDTSKNQFFLQLNSVIPEDSATYFCSRTPWDWGQGVMVTVSS
VL: B2 VL with T22A, L73R
notes: rat hybridoma antibody, antagonistic; subclass G1
